Results reported in patent US20110177070A1 (EMERGENT PRODUCT DEVELOPMENT SEATLLE, published 2011).
Each block holds one binder with its values, some of them ahead of it.

Assays:
[1] = target: T1, recombinant human TNF-α (human, UniProt P01375 77-233); test: dual-ligand ELISA: plate-coated HIL-6, Xceptor, 2 ng/ml TNF-α, anti-human TNF-α-biotin
T1 construct: also called rhTNF-α
Description: Added to each well of a 96-well plate was 100 μl human HIL-6 solution (5 μg/ml in PBS, pH 7.2-7.4). The plate was covered, and incubated overnight at 4° C. After washing four times with PBS-T, then 250 μl Blocking buffer was added to each well, the plate was covered, and incubated at room temperature for 2 hours (or at 4° C. overnight). After washing the plate three times with PBS-T, added in duplicate wells to the HIL-6 coated plate was 100 μl/well Xceptor TNFRSF1B::HIL6 samples serially diluted three-fold in Working buffer starting at 300 ng/ml. Negative controls included human gp130-Fc chimera (R&D Systems, Minneapolis, Minn.), Enbrel® (etanercept), and Working buffer only. The plate was covered and incubated at room temperature for 1.5 hours. After washing the plate five times with PBS-T, 100 μl per well recombinant human TNF-α (R&D Systems, Minneapolis, Minn.) to 2 ng/ml in Working buffer was added, the plate was covered, and incubated at room temperature for 1.5 hr. After washing the plate five times with PBS-T, 100 μl per well anti-human TNF-α-biotin (R&D Systems) to 200 ng/ml in Working buffer was added, the plate was covered, and incubated at room temperature for 1.5 hr. […] The absorbance of each well was read at 450 nm.

[2] = target: Xceptor fusion protein TRU(XT6)-1042; test: sandwich ELISA: Xceptor captured on anti-human IgG-Fc, sIL-6R, anti-human IL-6R-biotin
Description: Added to each well of a 96-well plate was 100 μl goat anti-human IgG-Fc (ICN Pharmaceuticals, Costa Mesa, Calif.) from a 2 μg/ml solution in PBS, pH 7.2-7.4, The plates were covered, and incubated overnight at 4° C. After washing four times with PBS-T, 250 μl Blocking buffer (PBS-T with 3% BSA or 10% normal goat serum) was added to each well, the plate was covered, and incubated at room temperature for 2 hours (or at 4° C. overnight). After washing the plate three times with PBS-T, added in duplicate wells to the anti-human IgG-Fc coated plate was 100 μl/well Xceptor TNFRSF1B::anti-HIL6 samples, positive control anti-human IL-6R(R&D Systems, Minneapolis, Minn.) and negative controls human IgG or human gp130-Fc chimera (R&D Systems), each serially diluted three-fold in Working buffer starting at 300 ng/ml, the plate was covered, and incubated at room temperature for about 1 to 2 hours. After washing the plate five times with PBS-T, added in duplicate wells was 100 μl/well recombinant human sIL-6R(R&D Systems) from a 75 pM solution in Working buffer, the plate was covered, and incubated at room temperature for about 1 to 2 hours. After washing the plate five times with PBS-T, added 100 μl/well anti-human IL-6R-biotin (R&D Systems) from a 100 ng/ml solution in Working buffer, the plate was covered, and incubated at room temperature for about 1 to 2 hours. After washing the plate five times with PBS-T, 100 μl per well horse radish peroxidase-conjugated streptavidin (Zymed, San Francisco, Calif.) diluted 1:4,000 in Working buffer was added, the plate was covered, and incubated at room temperature for 30 minutes. After washing the plate six times with PBS-T, 100 μl per well 3,3,5,5-tetramentylbenzidine (TMB) substrate solution (Pierce, Rockford, Ill.) was added for about 3 to 5 minutes and then the reaction was stopped with 50 μl Stop buffer (1N H₂SO₄) per well. The absorbance of each well was read at 450 nm.

T1 sequence (P01375 77-233 limits assumed): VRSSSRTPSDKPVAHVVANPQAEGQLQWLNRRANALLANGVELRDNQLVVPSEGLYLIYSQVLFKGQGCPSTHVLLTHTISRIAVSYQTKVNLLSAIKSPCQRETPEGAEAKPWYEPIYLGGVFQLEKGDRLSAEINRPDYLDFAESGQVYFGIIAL

binding result [1]: binds
B1: Xceptor fusion protein TRU(XT6)-1006 (Fc fusion)
chain: LPAQVAFTPYAPEPGSTCRLREYYDQTAQMCCSKCSPGQHAKVFCTKTSDTVCDSCEDSTYTQLWNWVPECLSCGSRCSSDQVETQACTREQNRICTCRPGWYCALSKQEGCRLCAPLRKCRPGFGVARPGTETSDVVCKPCAPGTFSNTTSSTDICRPHQICNVVAIPGNASMDAVCTSTSPTRSMAPGAVHLPQPVSTRSQHTQPTPEPSTAPSTSFLLPMGPSPPAEGSTGDTGEPKSSDKTHTCPPCPAPEAAGAPSVFLFPPKPKDTLMISRTPEVTCVVVDVSHEDPEVKFNWYVDGVEVHNAKTKPREEQYNSTYRVVSVLTVLHQDWLNGKAYACAVSNKALPAPIEKTISKAKGQPREPQVYTLPPSRDELTKNQVSLTCLVKGFYPSDIAVEWESNGQPENNYKTTPPVLDSDGSFFLYSKLTVDKSRWQQGNVFSCSVMHEALHNHYTQKSLSLSPGQRHNNSSLNTRTQKARHSPNSEVQLLESGGGLVQPGGSLRLSCAASGFTFSQYNMIWVRQAPGKGLEWVSWISSSGGTEYADSVKGRFTISRDNSKNTLYLQMNSLRAEDTAVYYCAKDRGYGSGSYGAYDAFDIWGQGTMVTVSSGGGGSGGGGSGGGGSQDIQMTQSPSSLSASVGDRVTITCQTSQSIDRYLNWYQQKAGEAPKLLIYAASSLQSGVPSRFSGSGSGTDFTLTISSLQPEDFASYYCQQSYRTPRTFGQGTKVEIK
notes: Xceptor TNFRSF1B::anti-HIL6

B2: recombinant human sIL-6R (receptor)
chain: LAPRRCPAQEVARGVLTSLPGDSVTLTCPGVEPEDNATVHWVLRKPAAGSHPSRWAGMGRRLLLRSVQLHDSGNYSCYRAGRPAGTVHLLVDVPPEEPQLSCFRKSPLSNVVCEWGPRSTPSLTTKAVLLVRKFQNSPAEDFQEPCQYSQESQKFSCQLAVPEGDSSFYIVSMCVASSVGSKFSKTQTFQGCGILQPDPPANITVTAVARNPRWLSVTWQDPHSWNSSFYRLRFELRYRAERSKTFTTWMVKDLQHHCVIHDAWSGLRHVVQLRAQEEFGQGEWSEWSPEAMGTPWTESRSPPAENEVSTPMQALTTNKDDDNILFRDSANATSLPVQD
notes: Bought soluble receptor; also called human soluble IL6R; IL6R alone
binding result [2]: no binding (tested: Xceptor from 300 ng/ml; sIL-6R 75 pM)
